Data: patent publication US20200347143A1 (GLENMARK PHARMACEUTICALS S A, published 2020)

Molecular target: T1, human OX40 on cells (human, UniProt P43489 29-277)
T1 sequence (looked up): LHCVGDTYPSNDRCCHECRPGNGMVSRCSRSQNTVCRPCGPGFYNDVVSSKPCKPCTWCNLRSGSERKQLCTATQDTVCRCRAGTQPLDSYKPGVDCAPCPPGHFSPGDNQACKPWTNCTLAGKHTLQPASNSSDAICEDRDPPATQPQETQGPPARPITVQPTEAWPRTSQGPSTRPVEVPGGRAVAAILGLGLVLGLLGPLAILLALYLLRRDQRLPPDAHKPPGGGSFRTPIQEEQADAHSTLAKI
Assay: cell-based or functional assay

B1: Tetra-19 (bispecific antibody, human IgG1, kappa, L234A L235A)
heavy 1: QVQLVQSGAEVKKPGASVKVSCKASGYTFTRYYMHWVRQAPGQGLEWMGWIYPGEGSTKYAQKFQGRVTMTRDTSISTAYMELSRLRSDDTAVYYCAREYGNYDYWGQGTLVTVSSASTKGPSVFPLAPSSKSTSGGTAALGCLVKDYFPEPVTVSWNSGALTSGVHTFPAVLQSSGLYSLSSVVTVPSSSLGTQTYICNVNHKPSNTKVDKKVEPKSCDKTHTCPPCPAPEAAGGPSVFLFPPKPKDTLMISRTPEVTCVVVDVSHEDPEVQFKWYVDGVEVHNAKTKPREEQYNSTFRVVSVLTVLHQDWLNGKEYKCKVSNKALPAPIEKTISKTKGQPREPAVYTLPPSREEMTKNQVKLVCLVTGFYPSDIAVEWESSGQPENNYYTTPPMLDSDGSFSLVSWLNVDKSRWQQGNIFSCSVMHEALHNRFTQKSLSLSPGGGGGTEVQLVESGGGLVQPGGSLRLSCAVSGYSITSDYAWNWIRQAPGKCLEWMGYISYSGSTAYNPSLKSRITISRDTSKNTFYLQMSSLRAEDTAVYYCARGPYNYLAYWGQGTLVTVSSGGGGSGGGGSGGGGSDIQLTQSPSSLSASVGDRVTITCRASESVDNYGISFMNWFQQKPGKAPKLLIYAASNQKSGVPSRFSGSGSGTDFTLTISSLQPEDFATYFCQQSKEVPLTFGCGTKVEIL
heavy 2: QVQLVQSGAEVKKPGASVKVSCKASGYTFTRYYMHWVRQAPGQGLEWMGWIYPGEGSTKYAQKFQGRVTMTRDTSISTAYMELSRLRSDDTAVYYCAREYGNYDYWGQGTLVTVSSASTKGPSVFPLAPSSKSTSGGTAALGCLVKDYFPEPVTVSWNSGALTSGVHTFPAVLQSSGLYSLSSVVTVPSSSLGTQTYICNVNHKPSNTKVDKKVEPKSCDKTHTCPPCPAPEAAGGPSVFLFPPKPKDTLMISRTPEVTCVVVDVSHEDPEVKFNWYVDGVEVHNAKTKPREEQYNSTYRVVSVLTVLHQDWLNGKEYKCKVSNKALPAPIEKTISKAKGQPREPEVATFPPSRDELTKNQVTLVCLVTGFYPSDIAVEWESNGQPENNYKTDPPLLESQGSFALSSRLRVDKSRWQQGNVFSCSVMHEALHNHYTQKSLSLSPGGGGGTQVQLVQSGAEVKKPGASVKVSCKASGYTFTRYYMHWVRQAPGQGLEWMGWIYPGEGSTKYAQKFQGRVTMTRDTSISTAYMELSRLRSDDTAVYYCAREYGNYDYWGQGTLVTVSSASTKGPSVFPLAPSSKSTSGGTAALGCLVKDYFPEPVTVSWNSGALTSGVHTFPAVLQSSGLYSLSSVVTVPSSSLGTQTYICNVNHKPSNTKVDKKVEPKSC
light: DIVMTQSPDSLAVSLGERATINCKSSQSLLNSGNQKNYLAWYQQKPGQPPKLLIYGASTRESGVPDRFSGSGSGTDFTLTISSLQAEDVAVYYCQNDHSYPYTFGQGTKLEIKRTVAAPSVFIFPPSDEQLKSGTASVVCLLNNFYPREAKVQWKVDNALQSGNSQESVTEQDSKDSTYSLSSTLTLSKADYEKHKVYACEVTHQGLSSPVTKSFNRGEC
% donor responder (>2), SEB assay, IL-2 release: 0% | Mean, normalized IL-2 release, SEB assay: 1

B2: 2H6 IgG1 LALA (antibody)
heavy: not shown
light: DIQLTQSPSSLSASVGDRVTITCRASESVDNYGISFMNWFQQKPGKAPKLLIYAASNQKSGVPSRFSGSGSGTDFTLTISSLQPEDFATYFCQQSKEVPLTFGQGTKVEIKRTVAAPSVFIFPPSDEQLKSGTASVVCLLNNFYPREAKVQWKVDNALQSGNSQESVTEQDSKDSTYSLSSTLTLSKADYEKHKVYACEVTHQGLSSPVTKSFNRGEC
% donor responder (>2), SEB assay, IL-2 release: 25% | Mean, normalized IL-2 release, SEB assay: 1.45

B3: Tetra-15 (antibody, human IgG1, kappa, L234A L235A)
heavy: not shown
light: DIQLTQSPSSLSASVGDRVTITCRASESVDNYGISFMNWFQQKPGKAPKLLIYAASNQKSGVPSRFSGSGSGTDFTLTISSLQPEDFATYFCQQSKEVPLTFGQGTKVEIKRTVAAPSVFIFPPSDEQLKSGTASVVCLLNNFYPREAKVQWKVDNALQSGNSQESVTEQDSKDSTYSLSSTLTLSKADYEKHKVYACEVTHQGLSSPVTKSFNRGEC
% donor responder (>2), SEB assay, IL-2 release: 0% | Mean, normalized IL-2 release, SEB assay: 0.93

B4: Tetra-18 (antibody, human IgG1, kappa, L234A L235A)
heavy: not shown
light: DIQLTQSPSSLSASVGDRVTITCRASESVDNYGISFMNWFQQKPGKAPKLLIYAASNQKSGVPSRFSGSGSGTDFTLTISSLQPEDFATYFCQQSKEVPLTFGQGTKVEIKRTVAAPSVFIFPPSDEQLKSGTASVVCLLNNFYPREAKVQWKVDNALQSGNSQESVTEQDSKDSTYSLSSTLTLSKADYEKHKVYACEVTHQGLSSPVTKSFNRGEC
% donor responder (>2), SEB assay, IL-2 release: 0% | Mean, normalized IL-2 release, SEB assay: 0.88

B5: Tetra-14 (bispecific antibody, human IgG1, kappa, L234A L235A)
heavy: not shown
light: DIQLTQSPSSLSASVGDRVTITCRASESVDNYGISFMNWFQQKPGKAPKLLIYAASNQKSGVPSRFSGSGSGTDFTLTISSLQPEDFATYFCQQSKEVPLTFGQGTKVEIKRTVAAPSVFIFPPSDEQLKSGTASVVCLLNNFYPREAKVQWKVDNALQSGNSQESVTEQDSKDSTYSLSSTLTLSKADYEKHKVYACEVTHQGLSSPVTKSFNRGEC
% donor responder (>2), SEB assay, IL-2 release: 40% | Mean, normalized IL-2 release, SEB assay: 1.65

B6: 7H11 IgG1 LALA (antibody, V domains shown)
VH: QVQLVQSGAEVKKPGASVKVSCKASGYTFTRYYMHWVRQAPGQGLEWMGWIYPGDGSTKYAQKFQGRVTMTRDTSISTAYMELSRLRSDDTAVYYCAREYGNYDYWGQGTLVTVSS
VL: DIVMTQSPDSLAVSLGERATINCKSSQSLLNSGNQKNYLAWYQQKPGQPPKLLIYGASTRESGVPDRFSGSGSGTDFTLTISSLQAEDVAVYYCQNDHSYPYTFGQGTKLEIKR
% donor responder (>2), SEB assay, IL-2 release: 6% | Mean, normalized IL-2 release, SEB assay: 0.81
